This note sets out measurements from article PMC2757176 (The Journal of biological chemistry, 2009).

Sequences and labels used below:
T1: PLC-γ1 SH2 N+C (aa 545 to 749) (human, UniProt P19174 545-749)
T1 sequence (looked up): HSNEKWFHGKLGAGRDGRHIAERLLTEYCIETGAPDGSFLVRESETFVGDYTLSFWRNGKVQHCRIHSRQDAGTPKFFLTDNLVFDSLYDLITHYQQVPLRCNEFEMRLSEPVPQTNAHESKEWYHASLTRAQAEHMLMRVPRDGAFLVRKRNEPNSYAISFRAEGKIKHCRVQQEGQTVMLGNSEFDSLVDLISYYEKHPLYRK

B1: FYN-SH3-SH2 (aa 82 to 248) (domain or fragment)
chain: not shown
B2: EAT-2 127 peptide, biotinylated, phosphorylated (peptide)
peptide: Biotin-NSNSD[pY]VDVLP
B3: LCK-SH3-SH2 (aa 58 to 230) (domain or fragment, human, UniProt P06239 58-230, looked up)
chain: ASPLQDNLVIALHSYEPSHDGDLGFEKGEQLRILEQSGEWWKAQSLTTGQEGFIPFNFVAKANSLEPEPWFFKNLSRKDAERQLLAPGNTHGSFLIRESESTAGSFSLSVRDFDQNQGEVVKHYKIRNLDNGGFYISPRITFPGLHELVRHYTNASDGLCTRLSRPCQTQKPQ

Non-standard residues stand in square brackets, D forms with d. No end group written: not given here. *: point of attachment. Biotin = O=C1N[C@H]2[C@H](CS[C@H]2CCCCC(=O)*)N1; pY = N[C@@H](Cc1ccc(OP(=O)(O)O)cc1)C(=O)O Some results are limits rather than exact numbers.

What all share (experiment): SPR
(In general: In SPR one partner is held on a chip, and binding of the other changes the refractive index at the surface.)

Assay [1] deals with B3.
In assay [2] the target is B1.
Assay [3] concerns the target T1, PLC-γ1 SH2 N+C (aa 545 to 749).
Assay [4] concerns the target B2.

In general, Kd refers to the free concentration of one partner at which half of the binding sites on the other are occupied at equilibrium, for simple one-to-one binding. Low readings indicate higher affinity, high ones lower affinity.

In the case of Biotin-QKGPPLPRPRVQPKPPHG [CD2-322 peptide, biotinylated], the figures for the Kd in assay [1] and in assay [2] were greater than 1000 µM and roughly 4 µM, respectively.
For the molecule Biotin-HNPG[pY]LVVLP [LAT 132 peptide, biotinylated, phosphorylated], the Kd in assay [3] was roughly 0.02 µM.
For the molecule Biotin-EFLTI[pY]EDVKD [CD244 ITSM 1 peptide, biotinylated, phosphorylated], the figures for the equilibrium dissociation constant (Kd) in assay [1] and in assay [2] were roughly 2 µM and roughly 0.2 µM, respectively.
The matching figures for Biotin-HPPPPPGHRSQAPSHRPPPPGHRVQ [CD2-281-305 peptide, biotinylated]: greater than 1000 µM and roughly 4 µM.
With B1, the “fold weaker than FYN binding to the CD244 ITSM” value in assay [4] is roughly 5 fold.
Regarding B2, in assay [3], the Kd is roughly 0.04 µM.
On to B3, for which the “fold weaker than FYN binding to human EAT-2” value in assay [4] was 10 fold.
